# Source: the nanobody polyreactivity screen of Harvey et al. (2022)
# Assay: yeast display, Sf9 membrane polyspecificity reagent, FACS + sequencing; frameworks hold sequencing errors
# Procedure, shortened: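 Using colony PCR, genes from sorted yeast display clones were amplified, then sequenced on MiSeq at 2 × 250 and filtered by CDR length. The clones had been stained with 10% biotinylated, detergent-solubilized Sf9 membrane reagent for 1 hour at 4 °C and sorted by FACS into low and high (top ~1%) gates on anti-HA and streptavidin fluorescence. Polyreactivity labels come from the gate of origin.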
sequence,measurement,value
QVQLVESGGGLVQAGGSLRLSCAASGFTFSGYSMGWYRPAPGKERELVAAITKSGGSTYYADSVKGRFTISRDTAKNTVYLQMNSLKPEDTAVYYCNADVLYTTEGDYWGQGTQVTVSS,polyreactivity (PSR sort gate),high polyreactivity
QVQLVESGGGLVQAGGSLRLSCAASGRIFVYYTMGWYRQAPGKERELVAAITGSGGSTYYADSVKGRFTISRDNAKNTVYLQMNSLKPEDTAVYSCAVYDSYRKFKYWGQGTQVTVSS,polyreactivity (PSR sort gate),high polyreactivity
QVQLVESGGGLFHAGGSLRLSCSASGLTFDINAMGWYRQEPGKERELVAAISRSGGRTYYADSVKGRFTISRDNAKNTVFLQMNSLKPEDTAVYYCADRFIYGYDYWGQGTQVTVSS,polyreactivity (PSR sort gate),high polyreactivity
QVQLVESGGGLVQAVGSLRLSCAASGRTFGTYAMGWYRQAPGKERELVAAISSGGSTYADSVKGRFTISRDNAKNTVYLQMNSLKPEDTAVYYCNNVRRKQSVLTFDYWGQGTQVTVSS,polyreactivity (PSR sort gate),high polyreactivity
QVQLVESGGGLVQAGGSLRLSCAASGSIFGYNAMGWYRQAPGKEREFVAAIRWSSGSTYYADSVKGRFTISRDNAKNTVYLQMNSLKPEDTAVYYCATRQTYLYWGQGTQVTVSS,polyreactivity (PSR sort gate),high polyreactivity
QVQLVESGGGLVQAGGSLRLSCAASGLIFYSYTMGWYRQAPGKERELVASITWTGGSTYYADSVKGRFTISRDNAKNTVYLQMNSLKPEDTAVYYCAVRVPSSIHIQLDYWGQGTQVTVSS,polyreactivity (PSR sort gate),high polyreactivity
QVQLVESGGGLVQAGGSLRVICAASGLIFYGYMGWSRQAPGKERELVAAISYTGGSTYYADSVKGRFTISRDNAKNTVYVQMNSLKPEDTAVYYCARDWRTKWFGYWGQGTQVTVSS,polyreactivity (PSR sort gate),low polyreactivity
QVQLVESGGGLVQAGGSLRLSCAASGSTFNRYAMGWYRQAPGKERELVAAISSRGGRTYYADSVKGRFTISRDNAKNTVYLQMNSLKPEDTAVYYCAADSSIDYDWGQGTQVTVSS,polyreactivity (PSR sort gate),high polyreactivity
QVQLVESGGGLVQAGGSLRLSCAASGSIFSANAMGWYRQAPGKERELLAAISSSGNTNYADSVKGRFTISRDNAKNTVYLQMNSLKPEDTAVYYCAVELKQVTPGLGYITLDYWGQGTQVTVSS,polyreactivity (PSR sort gate),low polyreactivity
QVQLVESGGGLVQAGGSLRLSCAASGSIFYRYAMGWYRQAPGKEWELVAAISYSGGSTYYADSVKGRFPISRDNAKNTVYVQMNSLKPEDTAVNYCATDYPPPISDYSRYYGYGYWGQGTQVTVSS,polyreactivity (PSR sort gate),low polyreactivity
QVHLVDSGGGLVQAGGILRLSCPATGSIFVYNTMGWYRQAPGKERELVADITSGTSTYYADSVKGRFTISRDNAKNTVYLQMNSLKPEDTAVYYSAAERWYKYYAYDYWGQGTQVTVSS,polyreactivity (PSR sort gate),low polyreactivity
QVQLVESGGGLVQAGGSLRLSCAASGITFDHYAMGWYRQAPGKERELVAAITSGGNTNYADSVKGRFTISRDNAKNTVYLQMNILKPVDTAVYYCNARYDVWYYYWGQGTQVTVSS,polyreactivity (PSR sort gate),high polyreactivity
QVQLVESGGGLVQAGGSLLLSCAASGSTLGRYAMGWYRQAPGKERELVASITWSDDSTYYADSVKGRFTISRDNAKNTVYLQMNSLKPEDTAVYYCAAAGNLYTYRFYYWGQGTQVTVSS,polyreactivity (PSR sort gate),low polyreactivity
QVQLVESGGGLVQAGGSLRLSSAASGIIFRDNAMGWYRQAPGKERELVAAIDSSGGTTYADSVKGRFTISRDNAKNTVYLQMNSLKPEDTAVYYCATEVYWTVSYYGYDYYGGNYYYWGQGTQVTVSS,polyreactivity (PSR sort gate),low polyreactivity
QVQLVESGGGLVQPGGSLRLSCAASGRTYRWYAMGWYRQAPGKERELVASITSGVSTYYADSVTGRCTISRDNAKNTVNLQMNSLKPEDTAVYYCAAGYRFTTYLVYNYWGQGTHVTVSS,polyreactivity (PSR sort gate),high polyreactivity
QVQLVESGGGLVQAGGSLRLSCAASGFIFARYAMGWYRQAPGKERELVAAISSSGGITYYADSVKGRFTISRDNAKNTVYFQMNSLKPEDTAVYYCAAPLGGGARWGRWWLYDSWGQGTQVTVSS,polyreactivity (PSR sort gate),low polyreactivity
QVQLVESGGGLVQAGGSLRLSCAASGSTFSSYAMGWYRQAPGKERELVAGISWGGSSTDYADSVKGRFTISRDNAKNTVYLQMNSLKPEDTAVYYCARRYRRGWSTLDYWGQGTQVTVSS,polyreactivity (PSR sort gate),low polyreactivity
QVQLVESGGGLVQAGGSLRLSCAASGIIFGDKAMGWYRQAPGKERELVAAITIGGTSTYYADSVKGRFTISRDNAKNTVYLQMNRLKPEDTAVYYCAKTILYDCDYWGQGTQVTVSS,polyreactivity (PSR sort gate),low polyreactivity
QVQLVESGGGLVQAGGSLRLSCAASGYIIRGYVMGWYRQAPGKERELVAAITSRGDSTYYADSVKGRFTISRDNAKNTVYLQMNSLIPEDTAVYYCYFYFRRQYEHEYWGQGTQVTVSS,polyreactivity (PSR sort gate),high polyreactivity
QVQLVESGGGLVQAGGSLRLSCAASGRIFYHNAMGWYRQAPGKERELVAAISWSGGNTYYADSVKGRFTISRDNAKNTVYLQMNSLKPEDTAVYYCNRYWYRDRLWLYDYWGQGTQVTVSS,polyreactivity (PSR sort gate),high polyreactivity
QVKLVESGGGLVQSGGSLRLSCAAYGRIFATNAMGWYRPAPGKERELVATITRSAGRTYYADSVKGRFTISRVKAKHSVYLQMNRLKPEDTAVFYFAASYWDTGPGYREYDYWGEGTQVTVSS,polyreactivity (PSR sort gate),low polyreactivity
QVQLVESGGGLVQAGGSLRLSCAASGITFPDYAMGWYRQAPGKERELVATISSSGGNTYYADSVKGRFTISRDNAKNTVYLQMNSLKPEDTAVYYCATVSYYWGYDYWGQGTQVTVSS,polyreactivity (PSR sort gate),low polyreactivity
QVQLVESGGGLVQAGGSLRLSCAASGSIFRYYVMGWYRQAPGKERELVASISYSVGRTYYADSVKGRFTISRDNAKNTVYLQMNSLKPEVTAVYYCAADRYWPYYSAYYTSYRMDYWGKGTQVTVSS,polyreactivity (PSR sort gate),high polyreactivity
QVHLVESGGGLVQAGGSLRLSCAASGRIIGKYAMGWYRQPPGKERELVAAITWSGGNTYYADSVKGRFTISRDNAKNTVYLQMNSLKPEDTAVYYCAASVPGKSHKDGYWGQGSQVTVSS,polyreactivity (PSR sort gate),high polyreactivity
QVQLVESGGGLVQAGGSLRLSCAASGNMFGYYAMGWYRQAPGKERELVARITSGGTTNYADSVKGRFTISRDNAKNTVYLQMNRLKPEDTAVYYCNKDWRRYWLRGDYWGQGTQVTVSS,polyreactivity (PSR sort gate),low polyreactivity
QVQLVESGGGLVQSGGSLRLSCAASGSIFGYYAMGWYRPAPGKERELVAGITNSGDTNYADSVKGRFTISRDNAKNTVYLQMNSLKPEDTAVYYCAAESWAALYGMDYWGQGTQVTVSS,polyreactivity (PSR sort gate),low polyreactivity
QVQLVESGGGLVQAGGSLRLSCAASGSTFVQNAMGWYRQAPGNERELVAAISRTGGSTYYADSVKGRFTISRDNAKNTVYLQMNSLKPEDTAVYYCAKRPPNYSWPKIIEFGSWGLGTQVTVSS,polyreactivity (PSR sort gate),high polyreactivity
QVQLVESGGGLVQAGGSLRLSCAASGSIFTHYAMGWYRQAPGKERELVAAIARRGGSTYYADSVKGRFTISRDNAKNTVYLQMNSLKPEDTAVYYCAKSPDTAKEYDYWGQGTQVTVSS,polyreactivity (PSR sort gate),high polyreactivity
QVQLVESGGGLVQAGGSLRLSCAASGRILSYYAMGWYRQAPGKERELVAAISWGGGRTFYADSVKGRFTISRDNAKNTVYLQMNSLQPEDTAVYYCNADSYRWGAHDYWGQGTQVTVSS,polyreactivity (PSR sort gate),high polyreactivity
QVQLVESGGGLVQAGGSLRLSCAASGSTFVRYAMGWDRQAPGTEGSWVAAISVDGDSTYYADSVKGRFTISRDNAKNTVYFQLNSLKPEDTAVYYCNVPLWDYYPRFPLHDYWGQGTQVTVSA,polyreactivity (PSR sort gate),low polyreactivity
QVQLVESGGGLVQAGGSLRLSCAASGSTFYFNAMGWYRQAPGKERELVAGISSGGSTYYADSVKGRFTISRDNAKNTVYLQMNSLKPEDTAVYYCAADSDTFYYTGYDYDYWGQGTQVTVSS,polyreactivity (PSR sort gate),low polyreactivity
QVQLVESGGGLVQAGGSLRLSCAASGFIFNYYTMGWYRQAPGKERELVAVITGGGGSTYYADSVKGRFTISRDNAKNTVYLQMNSLKPEDTAVYYCAAEWFSWGQGTQITVSS,polyreactivity (PSR sort gate),low polyreactivity
QVQLVESCGGLVQAGGSLRISCAASGIIFHLYAMGWYRQAPGKQRELVAAISWNGSSTYYADSVKGRFTISRDYAKNTVYLQRNSLKPEDTAVYYCAASYGYFEDYGYWGHGTQVTVSS,polyreactivity (PSR sort gate),low polyreactivity
QVQLVESGGGLVQAGGSLRLSCAASGRIFKYYSMGWYRQAPGKERELVAAITRGGSTNYADSVKGRFTISRDNAKNTFYLQMKSLKTEDTEVYYCAVDTVRNHLMDYWGQGNQVTVSS,polyreactivity (PSR sort gate),low polyreactivity
QVQLVDSGGGLVQAGGSLRLSCAASGITITEYAMGWYRQAPGKERELVAVISSVGTMYYADSVKGRFTISRDNAKNTVYFQMNSLKPEDTAVYYCAADYSDDGEYPYWSGSDYWGQGTQVTVSS,polyreactivity (PSR sort gate),low polyreactivity
QVQLVESGGGLVQAGGSLRLSCAASGSTFYNYAMGWYRQAPGKERELVAAISIGGSTYYADSVKGRFTISRDNAKNTVYLQMNSLKPEDTAVYYCAADDGDFYPIDDYWGQGTQVTVSS,polyreactivity (PSR sort gate),low polyreactivity
QVQLVESGGGLVQAGGSLRLSCAASGLTFRYYAMGWYRQAPGKERELVAAITRRGSTYYADSVKGRFTISRDNAKNTVYLQMNSLKPEDTAVYYCATVTGFHSSPLRDLDYWGQGTQVTVSS,polyreactivity (PSR sort gate),high polyreactivity
QVQLVESGGGLVQAGGSLRLSCAASGFIYGGNPRGWYRQAPGKERELVAANRSGGSTYYADSVKGRFTISRDNAKNTVYLQMNILKPEDTAVYYCAVRLRYAYRARGNYWGQGTQVTVSS,polyreactivity (PSR sort gate),low polyreactivity
QVQLVESGGGLVQAGGSLRLSCAASGRIFGYNAMGWYRQAPGKERELVAAIRRRGGTTYYADSVKGRFTISRDNAKNTVYLQMNSLKPEDTAVYYCNTKYPGRGYYWGQGTQVTVSS,polyreactivity (PSR sort gate),high polyreactivity
QVQLVESGGGLVQARGSLRLSCASSGRIFWRYAMRWYSQSPGKERELVAAISRSGGRTYYADSVKGRFTISRDNAKNTVYLQMISLKPEDTAVYYCAAKTGGQPGDYWGQGTQVTVSS,polyreactivity (PSR sort gate),high polyreactivity
QVQLVESRGGLVKAGGSLRLSCAASGRIFRKYDMGWYRQAPGKERELVAAISGTGITYYADSVKGRFTISRDNAKNTVYLQMNRLKPEDTAVYYCARGSKPRAWSWAFASATSIYEYWGQGTQLTVSS,polyreactivity (PSR sort gate),low polyreactivity
QVQLVESGGGLVQAGGSLRLSCAASGFIFAWYAMGWYRQAPGKERELVADITSGGDTSYADSVKGRFTISRDNAKNTVYLQMNSLKPEDTAVYYCARDVYIWYGYGYFPEYEYWGQGTQVTVSS,polyreactivity (PSR sort gate),low polyreactivity
QVQLVESGGGLVQAGGSLRLSCAASGSTFYAYAMGWYRQAPGKERELVAGISKRVGRTYYADSVKGRFTISRDNAKNTVYLQMNSLKPEDTAVYYCNADVYAYPATWLDYWGQGTQVTVSS,polyreactivity (PSR sort gate),high polyreactivity
